# Experimental data from US20180142284, “MULTIPLEX ANALYSIS OF GENE EXPRESSION IN INDIVIDUAL LIVING CELLS” (THE GENERAL HOSPITAL CORPORATION, published 2018).
# T1: PKR dsRBD (MAGIC factor), Alexa Fluor 488-labeled, affinity purified on dsRNA-agarose (Homo sapiens, UniProt P19525 SEQ:22-205)
# T1 chain: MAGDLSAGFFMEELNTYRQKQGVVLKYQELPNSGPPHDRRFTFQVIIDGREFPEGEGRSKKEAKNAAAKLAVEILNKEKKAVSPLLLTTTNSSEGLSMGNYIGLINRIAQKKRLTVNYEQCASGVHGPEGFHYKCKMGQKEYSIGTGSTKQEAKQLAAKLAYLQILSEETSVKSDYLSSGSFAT
# B1: EMSA dsRNA (dsRNA)
# RNA 1: GAGUCCUUCCACGAUACC
# RNA 2: GGUAUCGUGGAAGGACUC
# modifications: aminoallyl-uridine in labeled strand; sequence printed with T, transcribed as RNA
# B2: EMSA ssRNA (ssRNA)
# RNA: GAGUCCUUCCACGAUACC
# modifications: aminoallyl-uridine; sequence printed with T, transcribed as RNA
# Tests used:
# [1] = target: PKR dsRBD (MAGIC factor), Alexa Fluor 488-labeled, not affinity purified (Homo sapiens) (UniProt P19525); experiment: pulldown; settings: only 4% of labeled protein able to bind dsRNA
# [2] = target: T1, PKR dsRBD (MAGIC factor), Alexa Fluor …; experiment: EMSA; Kd value only in figure; about 30-fold higher affinity than unpurified labeled protein; settings: tags: N-terminal His6; Alexa Fluor 488 on primary amines; label: Alexa Fluor 647
# Excerpt: (§1) MAGIC factor was fluorescently-labeled with Alexa Fluor 488 and then reacted with dsRNA-coupled agarose beads to separate binding, functional protein (eluate) from non-binding, non-functional protein (flow and wash fractions). […] Unlabeled and unpurified fluorescent MAGIC factor and affinity purified fluorescent MAGIC factor were reacted with Alexa Fluor 647-labeled dsRNA and ssRNA and run on a native gel. The gel was visualized in the RNA channel (Ex. 633 nm/Em. 670/30 nm BP), protein channel (Ex. 488 nm/Em. 526 nm SP) and FRET channel (Ex. 488 nm/Em. 670/30nm). […] The dashed lines represent the cutoff after which increasing concentrations of only unpurified MAGIC factor were reacted with dsRNA.
# [3] = target: T1, PKR dsRBD (MAGIC factor), Alexa Fluor …; experiment: EMSA; stated to bind specifically to dsRNA; gel result only in figure; settings: tags: N-terminal His6; Alexa Fluor 488 on primary amines; label: Alexa Fluor 647
# Excerpt: as §1
molecule,measurement,setting,value
dsRNA coupled to agarose beads,binding signal,[1],4%
B1,binding result,[2],binds
B2,binding result,[3],no binding
